In PMC13167773, “Chiral inversion mutagenesis identifies geometrically constrained residues within self-associating low-complexity domains” (Proceedings of the National Academy of Sciences of the …, 2026):

T1: wild-type glutathione S-transferase (GST)-EMD LCD fusion protein
T1 sequence (P50402 whole entry, species assumed, looked up): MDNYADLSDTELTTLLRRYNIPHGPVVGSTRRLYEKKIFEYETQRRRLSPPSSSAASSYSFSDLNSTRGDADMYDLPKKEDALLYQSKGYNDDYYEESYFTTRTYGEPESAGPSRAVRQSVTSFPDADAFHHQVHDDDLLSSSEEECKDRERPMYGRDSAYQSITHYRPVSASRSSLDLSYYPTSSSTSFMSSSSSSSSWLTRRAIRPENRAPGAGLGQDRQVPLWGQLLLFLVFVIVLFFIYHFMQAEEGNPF


Molecular target: P07196
Assay: turbidity (absorbance at 395 nm); synthetic NEFL head domain 5×D library, 100 μM LCD, A395, n = 3
Conditions: other: turbidity (absorbance at 395 nm)

Row | Molecule | fold decrease in turbidity relative to WT
1 | synthetic NEFL head domain 5×D_(22-30) (protein) SSFSYEPYYSTSYKRRYVETPRVHISSVRCGYSTARSAYSSYSAPVSSSLSVRRSYSSSSGSLMPSLENLELS | 9.1-fold
2 | synthetic NEFL head domain 5×D_(63-71) (protein) SSFSYEPYYSTSYKRRYVETPRVHISSVRCGYSTARSAYSSYSAPVSSSLSVRRSYSSSSGSLMPSLENLELS | 1 fold
3 | synthetic NEFL head domain 5×D_(53-63) (protein) SSFSYEPYYSTSYKRRYVETPRVHISSVRCGYSTARSAYSSYSAPVSSSLSVRRSYSSSSGSLMPSLENLELS | 1.6-fold
4 | synthetic NEFL head domain 5×D_(33-41) (protein) SSFSYEPYYSTSYKRRYVETPRVHISSVRCGYSTARSAYSSYSAPVSSSLSVRRSYSSSSGSLMPSLENLELS | 20-fold
5 | synthetic NEFL head domain 5×D_(43-51) (protein) SSFSYEPYYSTSYKRRYVETPRVHISSVRCGYSTARSAYSSYSAPVSSSLSVRRSYSSSSGSLMPSLENLELS | 2.7-fold

Molecular target: T1, wild-type glutathione S-transferase (GST)-EMD LCD fusion protein
Assay: pull-down; WT GST-EMD LCD immobilized on glutathione resin, incubated with HA-tagged EMD LCD prey (50 nM), washed with binding buffer, eluted with GSH; anti-HA Western blot of eluent relative to input, densitometry, n = 3
Conditions: not given

Row | fold reduction of pulldown relative to WT | Molecule
6 | 3.4 fold | HA-tagged EMD LCD 3×Pro_(198-201) (domain or fragment)
7 | 2.2 fold | HA-tagged EMD LCD 3×Pro_(183-186) (domain or fragment)
8 | 5.9 fold | HA-tagged EMD LCD 3×Pro_(193-196) (domain or fragment)
9 | 5 fold | HA-tagged EMD LCD 3×Pro_(188-191) (domain or fragment)

Molecular target: T1, wild-type glutathione S-transferase (GST)-EMD LCD fusion protein
Assay: as above
Conditions: not given
Remark: another data set of the same source

Row | fold reduction of pulldown relative to WT | fold difference of pulldown from WT | Molecule
10 | 8.8 fold | – | HA-tagged semisynthetic EMD LCD 3×D_(191-195) (domain or fragment, three D-amino acids at alternating positions, 3×D_(191-195)) RRLSPPSSSAASSYSFSDLNSTRGDADMYDLPKKEDALLYQSKGYNDDYYEESYFTTRTYGEPESAGPSRAVRQSVTSFPDADAFHHQVHDDDLLSSSEEECKDRERPMYGRDSAYQSITHYRPVSASRSSLDLSYYPTSSSTCFMSSSSSSSSWLTRRAIRPENRAPGAGLGQER
11 | – | 1.8 fold | HA-tagged semisynthetic EMD LCD 3×D_(207-211) (domain or fragment, three D-amino acids at alternating positions, 3×D_(207-211)) RRLSPPSSSAASSYSFSDLNSTRGDADMYDLPKKEDALLYQSKGYNDDYYEESYFTTRTYGEPESAGPSRAVRQSVTSFPDADAFHHQVHDDDLLSSSEEECKDRERPMYGRDSAYQSITHYRPVSASRSSLDLSYYPTSSSTCFMSSSSSSSSWLTRRAIRPENRAPGAGLGQER
12 | 6.2 fold | – | HA-tagged semisynthetic EMD LCD 3×D_(199-203) (domain or fragment, three D-amino acids at alternating positions, 3×D_(199-203)) RRLSPPSSSAASSYSFSDLNSTRGDADMYDLPKKEDALLYQSKGYNDDYYEESYFTTRTYGEPESAGPSRAVRQSVTSFPDADAFHHQVHDDDLLSSSEEECKDRERPMYGRDSAYQSITHYRPVSASRSSLDLSYYPTSSSTCFMSSSSSSSSWLTRRAIRPENRAPGAGLGQER
13 | 3.6 fold | – | HA-tagged semisynthetic EMD LCD 3×D_(203-207) (domain or fragment, three D-amino acids at alternating positions, 3×D_(203-207)) RRLSPPSSSAASSYSFSDLNSTRGDADMYDLPKKEDALLYQSKGYNDDYYEESYFTTRTYGEPESAGPSRAVRQSVTSFPDADAFHHQVHDDDLLSSSEEECKDRERPMYGRDSAYQSITHYRPVSASRSSLDLSYYPTSSSTCFMSSSSSSSSWLTRRAIRPENRAPGAGLGQER
14 | – | 1.7 fold | HA-tagged semisynthetic EMD LCD 3×D_(211-215) (domain or fragment, three D-amino acids at alternating positions, 3×D_(211-215)) RRLSPPSSSAASSYSFSDLNSTRGDADMYDLPKKEDALLYQSKGYNDDYYEESYFTTRTYGEPESAGPSRAVRQSVTSFPDADAFHHQVHDDDLLSSSEEECKDRERPMYGRDSAYQSITHYRPVSASRSSLDLSYYPTSSSTCFMSSSSSSSSWLTRRAIRPENRAPGAGLGQER
15 | 7.9 fold | – | HA-tagged semisynthetic EMD LCD 3×D_(195-199) (domain or fragment, three D-amino acids at alternating positions, 3×D_(195-199)) RRLSPPSSSAASSYSFSDLNSTRGDADMYDLPKKEDALLYQSKGYNDDYYEESYFTTRTYGEPESAGPSRAVRQSVTSFPDADAFHHQVHDDDLLSSSEEECKDRERPMYGRDSAYQSITHYRPVSASRSSLDLSYYPTSSSTCFMSSSSSSSSWLTRRAIRPENRAPGAGLGQER

Molecular target: the molecule itself
Assay: turbidity (absorbance at 395 nm); synthetic NEFL head domain 5×D library, 100 μM LCD, A395, n = 3
Conditions: not given

Row | Molecule | binding result
16 | synthetic NEFL head domain (residues 2 to 74), WT (domain or fragment, UniProt P07196 2-74, looked up, neurofilament light chain (NEFL) head domain residues 2 to 74, ligation junction cysteine S31C and D72E; also called WT head domain; NEFL LCD; source: fully synthetic: NEFL-P1 (2 to 30, MesNa thioester) ligated to NEFL-P2 (31 to 74) by native chemical ligation; RP-HPLC purified) SSFSYEPYYSTSYKRRYVETPRVHISSVRCGYSTARSAYSSYSAPVSSSLSVRRSYSSSSGSLMPSLENLELS | binds

System: not listed separately
Assay: turbidity (absorbance at 395 nm); untagged recombinant EMD LCD 3×Pro library, 60 μM LCD, transfer from denaturing to native Tris buffer, n = 3; self-association read as precipitation
Conditions: other: turbidity (absorbance at 395 nm)

Row | Molecule | fold reduction of turbidity relative to WT
17 | untagged EMD LCD 3×Pro_(193-196) | 16.6 fold
18 | untagged EMD LCD 3×Pro_(188-191) | 108 fold
19 | untagged EMD LCD 3×Pro_(198-201) | 34.7 fold
20 | untagged EMD LCD 3×Pro_(203-206) | 14.3-fold
21 | untagged EMD LCD 3×Pro_(183-186) | modestly reduces turbidity by 2.8-fold relative to WT

Molecular target: the molecule itself
Assay: turbidity (absorbance at 395 nm); untagged semisynthetic EMD LCD ChIM library, 50 μM LCD, rapid dilution from strong denaturant into physiological buffer, n = 3
Conditions: not given

Row | Molecule | binding result
22 | untagged semisynthetic EMD LCD (residues 46 to 221), all-L-WT (domain or fragment, UniProt P50402 46-221, looked up, Emerin (EMD) LCD residues 46 to 221, S189C and D220E; Rink amide resin implies a C-terminal amide (surmised); also called WT variant; source: RP-HPLC purified) RRLSPPSSSAASSYSFSDLNSTRGDADMYDLPKKEDALLYQSKGYNDDYYEESYFTTRTYGEPESAGPSRAVRQSVTSFPDADAFHHQVHDDDLLSSSEEECKDRERPMYGRDSAYQSITHYRPVSASRSSLDLSYYPTSSSTCFMSSSSSSSSWLTRRAIRPENRAPGAGLGQER | binds

Molecular target: P50402
Assay: as above
Conditions: other: turbidity (absorbance at 395 nm)

Row | Molecule | fold decrease in turbidity | fold decrease in turbidity relative to WT
23 | untagged semisynthetic EMD LCD 3×D_(203-207) (protein) RRLSPPSSSAASSYSFSDLNSTRGDADMYDLPKKEDALLYQSKGYNDDYYEESYFTTRTYGEPESAGPSRAVRQSVTSFPDADAFHHQVHDDDLLSSSEEECKDRERPMYGRDSAYQSITHYRPVSASRSSLDLSYYPTSSSTCFMSSSSSSSSWLTRRAIRPENRAPGAGLGQER | a modest 1.4-fold decrease in turbidity | –
24 | untagged semisynthetic EMD LCD 3×D_(199-203) (protein) RRLSPPSSSAASSYSFSDLNSTRGDADMYDLPKKEDALLYQSKGYNDDYYEESYFTTRTYGEPESAGPSRAVRQSVTSFPDADAFHHQVHDDDLLSSSEEECKDRERPMYGRDSAYQSITHYRPVSASRSSLDLSYYPTSSSTCFMSSSSSSSSWLTRRAIRPENRAPGAGLGQER | 2.1-fold | –
25 | untagged semisynthetic EMD LCD 3×D_(191-195) (protein) RRLSPPSSSAASSYSFSDLNSTRGDADMYDLPKKEDALLYQSKGYNDDYYEESYFTTRTYGEPESAGPSRAVRQSVTSFPDADAFHHQVHDDDLLSSSEEECKDRERPMYGRDSAYQSITHYRPVSASRSSLDLSYYPTSSSTCFMSSSSSSSSWLTRRAIRPENRAPGAGLGQER | 13.3 fold | –
26 | semisynthetic EMD LCD with a central 1×D inversion within the 3×D_(191-195) variant (protein) RRLSPPSSSAASSYSFSDLNSTRGDADMYDLPKKEDALLYQSKGYNDDYYEESYFTTRTYGEPESAGPSRAVRQSVTSFPDADAFHHQVHDDDLLSSSEEECKDRERPMYGRDSAYQSITHYRPVSASRSSLDLSYYPTSSSTCFMSSSSSSSSWLTRRAIRPENRAPGAGLGQER | – | a 6.4-fold decrease in turbidity relative to WT
27 | untagged semisynthetic EMD LCD 3×D_(195-199) (protein) RRLSPPSSSAASSYSFSDLNSTRGDADMYDLPKKEDALLYQSKGYNDDYYEESYFTTRTYGEPESAGPSRAVRQSVTSFPDADAFHHQVHDDDLLSSSEEECKDRERPMYGRDSAYQSITHYRPVSASRSSLDLSYYPTSSSTCFMSSSSSSSSWLTRRAIRPENRAPGAGLGQER | 2.8 fold | –
